The experiment deals with QtEnc^FLAG (encapsulin shell protein from Quasibacillus thermotolerans with a C-terminal FLAG tag) (Quasibacillus thermotolerans).

For the substance “DD-mScarlet-I-QtSig (destabilized fluorescent cargo protein)”, the mScarlet-I fluorescence (RFP channel) of HepG2 cells coexpressing QtEnc^FLAG and the degron-tagged cargo; share of fluorescent cells; cells with the cargo alone gave a weak background signal was 20 % of cells.

Values taken from publication PMC8002387.
